The record followed here is patent US20230008694.

Holding throughout (experiment): cell_activity
The test system of data set [1] is GmFAD3_T08-R1 half-TALEN (synthetic (TAL effector-FokI)).
Data set [2] has as its system GmFAD3_T09-R1 half-TALEN (synthetic (TAL effector-FokI)).
The subject of data set [3] is GmFAD3_T08-L1 half-TALEN (synthetic (TAL effector-FokI)).
Data set [4] deals with GmFAD3_T09-L1 half-TALEN (synthetic (TAL effector-FokI)).
The test system of data set [5] is GmFAD2_T01-R1 half-TALEN (synthetic (TAL effector-FokI)). To be noted: pair with T01-L1 at FAD2-1A (FAD2-1B 3.41).
Data set [6] concerns GmFAD2_T02-L1 half-TALEN (synthetic (TAL effector-FokI)). The settings on record: pair with T02-R1 at FAD2-1A (FAD2-1B 1.19).
The subject of data set [7] is GmFAD2_T01-L1 half-TALEN (synthetic (TAL effector-FokI)). To be noted: pair with T01-R1 at FAD2-1A (FAD2-1B 3.41); soybean protoplasts.
Data set [8] concerns GmFAD2_T04-R1 half-TALEN (synthetic (TAL effector-FokI)). The settings on record: pair with T04-L1 at FAD2-1A (FAD2-1B 3.54).
The subject of data set [9] is GmFAD2_T03-R1 half-TALEN (synthetic (TAL effector-FokI)). To be noted: pair with T03-L1 at FAD2-1A (FAD2-1B 3.94).
Data set [10] has as its system GmFAD2_T03-L1 half-TALEN (synthetic (TAL effector-FokI)). The settings on record: pair with T03-R1 at FAD2-1A (FAD2-1B 3.94).
Data set [11] relates to GmFAD2_T04-L1 half-TALEN (synthetic (TAL effector-FokI)). The settings on record: pair with T04-R1 at FAD2-1A (FAD2-1B 3.54).
The subject of data set [12] is GmFAD2_T02-R1 half-TALEN (synthetic (TAL effector-FokI)). To be noted: pair with T02-L1 at FAD2-1A (FAD2-1B 1.19).

As to “CATGTTGAGAAGGATGA (double strand) [GmFAD3_T09-R1 half-site]”, the activity was found to be 5.98 % NHEJ in data set [1] (pair with T09-L1 at FAD3C, mismatched right half-site, with T08-L1 3.59) and 11.3 % NHEJ in data set [2] (pair with T09-L1 at FAD3C, with T08-L1 7.60).

Consider “TTAGCCACAGAACTCAC (double strand) [GmFAD3_T08-L1 half-site]”, for which the activity turned out to be 22.9 % NHEJ in data set [3] (pair with T08-R1 at FAD3A (FAD3B 14.57), soybean protoplasts 48 h) and 12.4 % NHEJ in data set [4] (pair with T08-R1 at FAD3A (FAD3B 11.17), mismatched left half-site).

For the sequence “TTGAGTTGGCCAACAGT (double strand) [GmFAD2_T01-R1 half-site]”, the activity in data set [5] is 3.95 % NHEJ.

“TATGTTGTTTATGACCT (double strand) [GmFAD2_T02-L1 half-site]” displayed an activity in [6] of 0.91 % NHEJ.

With “CACATTGAGAAGGATGA (double strand) [GmFAD3_T08-R1 half-site]”, the activity in data set [1] (pair with T08-L1 at FAD3A (FAD3B 14.57), with T09-L1 12.37 at FAD3A, 11.17 at FAD3B) came to 22.9 % NHEJ; in data set [2] (pair with T08-L1 at FAD3A (FAD3B 1.80), mismatched right half-site, with T09-L1 6.46 (FAD3B 3.61)) it was 6.56 % NHEJ.

With “TCTCAAGGGTTCCAAAC (double strand) [GmFAD2_T01-L1 half-site]”, the activity in data set [7] is 3.95 % NHEJ.

“TAGGTGGTGGCAATGTA (double strand) [GmFAD2_T04-R1 half-site]” had an activity in [8] of 4.67 % NHEJ.

With “TGGCAATGTAGAAAATG (double strand) [GmFAD2_T03-R1 half-site]”, in data set [9], the activity came out at 4.91 % NHEJ.

“TTAGCCACAGGACTCAC (double strand) [GmFAD3_T09-L1 half-site]”: the activity turned out to be 7.6 % NHEJ in data set [3] (pair with T09-R1 at FAD3C, mismatched left half-site, with T08-R1 3.59) and 11.3 % NHEJ in [4] (pair with T09-R1 at FAD3C, multiplex T09-L1/T08-R1/T09-R1 21.42 (Table 2)).

Turning to “TCCTATGTTGTTTATGA (double strand) [GmFAD2_T03-L1 half-site]”, in data set [10], the activity was found to be 4.91 % NHEJ.

In data set [11], “TTGTTTATGACCTTTCA (double strand) [GmFAD2_T04-L1 half-site]” returned an activity of 4.67 % NHEJ.

For the sequence “TGGTGGCAATGTAGAAA (double strand) [GmFAD2_T02-R1 half-site]”, in data set [12], the activity turned out to be 0.91 % NHEJ.
